Laboratory results taken from patent US20030211575A1.

Columns and labels:
Test in all cases: cell-based or functional assay
[1] = target: Shaker H4 K+ channel, N-terminal deletion 6-46, P475H mutant (Drosophila) (UniProt P08510)
[2] = target: Kv2.1 K+ channel P406D mutant (rat) (UniProt P15387)
[3] = target: Shaker H4 K+ channel, N-terminal deletion 6-46, P475D mutant (Drosophila) (UniProt P08510)
[4] = target: Shaker H4 K+ channel, N-terminal deletion 6-46, P475K mutant (Drosophila) (UniProt P08510)
[5] = target: Shaker H4 K+ channel, N-terminal deletion 6-46, P475E mutant (Drosophila) (UniProt P08510)

Measured: block of channel current (two-electrode voltage clamp, Xenopus oocytes); concentration called saturating

Chain of Shaker H4 K+ channel, N-terminal deletion 6-46, P475K mutant (Drosophila) (P08510 whole entry P475K): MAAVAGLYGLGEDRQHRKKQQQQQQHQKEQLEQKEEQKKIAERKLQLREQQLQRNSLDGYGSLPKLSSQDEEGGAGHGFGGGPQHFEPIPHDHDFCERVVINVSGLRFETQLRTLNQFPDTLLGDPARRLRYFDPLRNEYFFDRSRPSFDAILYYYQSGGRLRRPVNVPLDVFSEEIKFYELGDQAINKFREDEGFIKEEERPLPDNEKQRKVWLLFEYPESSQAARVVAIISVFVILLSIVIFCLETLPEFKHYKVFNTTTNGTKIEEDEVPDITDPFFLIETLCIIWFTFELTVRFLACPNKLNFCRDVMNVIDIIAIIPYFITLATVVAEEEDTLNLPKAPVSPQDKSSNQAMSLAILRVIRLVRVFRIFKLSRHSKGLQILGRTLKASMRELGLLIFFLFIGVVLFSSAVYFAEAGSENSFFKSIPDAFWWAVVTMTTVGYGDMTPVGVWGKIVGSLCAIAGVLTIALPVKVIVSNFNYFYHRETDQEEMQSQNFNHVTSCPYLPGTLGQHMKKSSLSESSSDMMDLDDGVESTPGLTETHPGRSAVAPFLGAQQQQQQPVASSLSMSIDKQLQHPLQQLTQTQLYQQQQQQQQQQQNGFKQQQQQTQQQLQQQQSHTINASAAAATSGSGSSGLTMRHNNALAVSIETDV
Chain of Shaker H4 K+ channel, N-terminal deletion 6-46, P475D mutant (Drosophila) (P08510 whole entry P475D): as the sequence (P08510 whole entry P475K) above, with K475D counted along it
Chain of Shaker H4 K+ channel, N-terminal deletion 6-46, P475E mutant (Drosophila) (P08510 whole entry P475E): as the sequence (P08510 whole entry P475K) above, with K475E counted along it
Chain of Shaker H4 K+ channel, N-terminal deletion 6-46, P475H mutant (Drosophila) (P08510 whole entry P475H): as the sequence (P08510 whole entry P475K) above, with K475H counted along it

agitoxin2 (from UniProt P46111 1-38) (peptide)
1 µM: all assays above
